Source: patent US20040014194A1, “Beta-secretase crystals and methods for preparing and using the same” (Schering Corporation, priority 2002, published 2004)

B1: proBACE: immature, soluble human β-secretase with amino-terminal propeptide, expressed in Sf9 insect cells (protein, listed as Homo sapiens)
chain: TQHGIRLPLRSGLGGAPLGLRLPRETDEEPEEPGRRGSFVEMVDNLRGKSGQGYYVEMTVGSPPQTLNILVDTGSSNFAVGAAPHPFLHRYYQRQLSSTYRDLRKGVYVPYTQGKWEGELGTDLVSIPHGPNVTVRANIAAITESDKFFINGSNWEGILGLAYAEIARPDDSLEPFFDSLVKQTHVPNLFSLQLCGAGFPLNQSEVLASVGGSMIIGGIDHSLYTGSLWYTPIRREWYYEVIIVRVEINGQDLKMDCKEYNYDKSIVDSGTTNLRLPKKVFEAAVKSIKAASSTEKFPDGFWLGEQLVCWQAGTTPWNIFPVISLYLMGEVTNQSFRITILPQQYLRPVEDVATSQDDCYKFAISQSSTGTVMGAVIMEGFYVVFDRARKRIGFAVSACHVHDEFRTAAVEGPFVTLDMEDCGYNIPQTDESTLE
B2: mature BACE: glycosylated, soluble fragment of mature human BACE, autoprocessed from proBACE at pH 4.0 (protein, listed as Homo sapiens)
chain: ETDEEPEEPGRRGSFVEMVDNLRGKSGQGYYVEMTVGSPPQTLNILVDTGSSNFAVGAAPHPFLHRYYQRQLSSTYRDLRKGVYVPYTQGKWEGELGTDLVSIPHGPNVTVRANIAAITESDKFFINGSNWEGILGLAYAEIARPDDSLEPFFDSLVKQTHVPNLFSLQLCGAGFPLNQSEVLASVGGSMIIGGIDHSLYTGSLWYTPIRREWYYEVIIVRVEINGQDLKMDCKEYNYDKSIVDSGTTNLRLPKKVFEAAVKSIKAASSTEKFPDGFWLGEQLVCWQAGTTPWNIFPVISLYLMGEVTNQSFRITILPQQYLRPVEDVATSQDDCYKFAISQSSTGTVMGAVIMEGFYVVFDRARKRIGFAVSACHVHDEFRTAAVEGPFVTLDMEDCGYNIPQTDESTLE
modifications: glycosylated
notes: glycosylated, soluble fragment of mature human BACE, autoprocessed from proBACE at pH 4.0

Molecular target: T1, β-secretase purified from Sf-9 cells (Homo sapiens, UniProt P56817)
T1 construct: made in house; host or cells: Sf9 insect cells, baculovirus (Bac-to-Bac), secreted into the medium
Test: HPLC assay of β-secretase enzymatic activity with a peptide substrate derived from "Swedish" amyloid protein peptide
Type: biochemical
Settings: proBACE compared with mature BACE
Description: To assess the functionality of β-secretase purified from Sf-9 cells, an HPLC assay was developed using a peptide substrate derived from the sequence of “Swedish” amyloid protein peptide (Dreyer et al., (1994) Eur J. Biochem 224: 265-271). In these assays, ProBACE (SEQ ID NO: 2) and mature BACE (SEQ ID NO: 1) were tested.

| Molecule | enzymatic activity with substrate Biotin-KSEVNL*DAEFRK-Fluorescein |
| --- | --- |
| B1 | equivalent |
| B2 | equivalent |
